Laboratory results published in ChEMBL document CHEMBL1152703, “Design and synthesis of a beta-lactamase activated 5-fluorouracil prodrug” (Bioorg Med Chem Lett, 2009).

Substrate: O=C(Cc1cccs1)N[C@@H]1C(=O)N2C(C(=O)O)=C(Cn3c(=O)[nH]cc(F)c3=O)CS[C@H]12
Experiment: Activity at Enterobacter cloacae P99 beta-lactamase by Michaelis-Menten equation

B1: Beta-lactamase (Enterobacter cloacae), P05364 (protein)
chain: MMRKSLCCALLLGISCSALATPVSEKQLAEVVANTITPLMKAQSVPGMAVAVIYQGKPHYYTFGKADIAANKPVTPQTLFELGSISKTFTGVLGGDAIARGEISLDDAVTRYWPQLTGKQWQGIRMLDLATYTAGGLPLQVPDEVTDNASLLRFYQNWQPQWKPGTTRLYANASIGLFGALAVKPSGMPYEQAMTTRVLKPLKLDHTWINVPKAEEAHYAWGYRDGKAVRVSPGMLDAQAYGVKTNVQDMANWVMANMAPENVADASLKQGIALAQSRYWRIGSMYQGLGWEMLNWPVEANTVVEGSDSKVALAPLPVAEVNPPAPPVKASWVHKTGSTGGFGSYVAFIPEKQIGIVMLANTSYPNPARVEAAYHILEALQ
Km: 95.4 µM | Vmax: 3.21 µmol/min/mg
